The domain aggregation screens of Martell et al. (2025)

Test: soluble fraction after stress (log2 fold change); higher = more stays soluble; pooled small domains, quantitative proteomics
Conditions: stress: 75 degC
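Further: 20 min heating vs room temperature control held 20 min.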

Sequence	soluble fraction (log2)
HMADLNQTDIDSITKSVGGVEQYKSLMDWAGKTLSQDAIDSFDDLVNTGNKGSIQLAVNGLVAQYQNDN	0.167
HMTVVIKVQASQLESWKSSAGTEIKAKLIAVEDEKTYLFVTETGKTIRATAAQLDESSVSRARKLAGL	-2.37
HMAAHHIILEEREQLSVSGVEEVESFDENTIVMLTNRGTLIVRGEELHIEKLSLDGGDLRVEGSIDSLTYE	-0.465
HMDRENNITAGREILEKELSRLALNMKMVNLQDYAARFNVKHSDDILAGIGAGDIRPAHIVNAIAEKLT	-0.0151
HMTFGENLIRLRRQQGLSQEQLGMRIGVSRQTVSKWELNDTTPEMEKLIALADLFGLSLDELTGRV	-0.974
HMNANTILNSQRILTQLGFNPGPIDGAFGAKTKGALNAFYTSIGKSYDGLLDSNELVELQKALDVSGLKN	-0.524
HMQPNVTRERILAAAMTVFAQKGWQKTSLDEVAAAAGMTKGAIYWHFRNKNDLFFALLDARLQRD	-2.16
HMEVKEVDYSAFMTMTEENSISKVEIEENQILFKKKGDDQTTYKTARMDDPALITRLHDQGVDFTGQ	0.139
HMGDYERVPEYKGKLTSDLTMEDSQKFAFRFIWQNSDEDEGKIIDQDPPAGKSVAKGSEIVLYVSNG	0.474
HMGQELRFVIQDHEAGIRLDHYLTQQVEGYSRSHLRKLMDQGLITVDGSYRKAGYRLNVGDVIHVVIPPTR	-0.813
HMKPNEYVSGETFPYLGKNYRLKVLHGSENSVRLKGGYFITTISNRDSQLSTVKSLLEDWYQTHADK	0.043
HMDRADIDAVDAEWVRATMERLGLRAKHIESHTGISKSTLSILLNGHRPLTRWHKIAFYYLFKHIEF	-2.76
HMEKPAQDVLASHREWMGEMIKAEHMTAKQVWRLLRERADIGVSYPTVKRYLRAHFQFGGPS	-1.57
HMVEVPNVSNLTLEQAENKLIQQGLQVKLEGQGEKVVAQIPQPGAVVNKKSTVILF	0.258
HMSIEIIEITSNSSPKNLSEIIDIDATQIVADLMGLGIMKAIDTPLENSEIEQLLEKYNLIAEFVE	-2.76
HMVFLPDEIFRLKVIKAGEGPEQGVGYLDDGTMVVIEGARDRIGDELEVRVTSTLQTNAGKMIFTKFE	-0.548
HMALPDSEKRQWLVDEVNERGLKLPDDVLEYLFARVGRSQAHLVDVIEKLDFESLAQSRKLTIPFVREVLK	-0.225
HMGKMTSTLGVHIAAYRKEHGETVAQFASRSGVSVSSIRRIESGISDPSADLVWKISRHMGMTMDDLFKKM	-3.74
HMERLKKYLDDVRTFLPGTNPKKVDEILREIESHVLERAEREHGEVNDNAVAMSIKEYGSPEEVAARYYEG	0.809

Sequence	soluble fraction (log2)
HMTYTMVAYGSQGDAVRQLQSELNRHGYQLDEDGVFGKKTRAAVRDYQKKNSLRLDGIAGDETWGSLLA	0.696
HMRKTLASTAYDSIKAGIVSGEINNNLLLSENTLAKILNMSRTPIREAIKRLEAESYLKSVDGVGLIVQE	-0.43
HMSFVDFYGLFTTELQRLAELPVTADELIKNTGLHKSQLTDWLKRAEEDGVVKKLNRPVRYQVEKK	-1.66
HMADTPQAYIRQMVQEAGADGIMLSTITDRLRARFKDFKVRDLGYAQMRQYMASTGTYDLEKSGRNFRVHL	-1.06
HMKLTNIQYETLKVVVESRAKIDEEEGITIKLEDIKKYIDQAISFTGLVGDDEDYKKLFADMEYRFKIQ	-2.96
HMDPQDGTVKFFNGARGFGFITPDGGGADVFVHVSAVERAGLTQLVEGQRVNFQTLPDTKGKGPKAVNLKV	0.106
HMRNERDRQLYAAMEKLKAEYREALYLVYFENMSYRDAAAVMAQTEKQISNLVYRGKQSLKTILEQEGF	-2.6
HMTNYSFIVNENFNNKRIDQVVANHYPKISRTKVNKIIKNNLLKLNGSTFNDPSAKVKLGDQIEFENL	0.434
HMHYELTPDAEKQLSALGLTAELVERILEEANDRRPIPGTNRTVYSLHGYSVEFSNTNHKIVSVRKG	-0.882
HMRYLHTMIRVSDLEESLNFFKLLDIHEVSRKENEQARFTLVFLSATGDEKLVENAKSPLIELTFN	-0.0509
HMEPTLVVARDKDAKSPLVAKLMKELGVDAAPRVIVDDSVIGGAKLSHNHTEIDATYKTALINLYQAIT	0.19
HMSDAGAIEPTIKEILASNPKAVEEYLAGNIKNINALIGQSMKALHGKADPQTVRNLLAKLLDEM	-0.252
HMSVPVDEVLAALTQKLTDLRTQAMAAKDFSAVDALKAALTEAGVEVRMSKTGVELIAGPRVDAKKLGTL	0.395
HMDEAETELIRRMVSEHPPTTKRERDIVQMRLRGYLFVEIGEAYGISFQRAAQIYNAAVEKIKEYWD	-0.242
HMNDLDSLWDIWENLNERGIGDKSEEGQELRDAIREFIDTNELNVRVTRNKTNEDLLTDIEDALEVAKNS	-0.588
HMSDDVELLGRLSDREVSVLQYLSQGYSNKQISEQMFISNKTVSTYKARLLLKLNAGSLVDLIEFAKRNTL	-1.35
HMLTGNTAKLFAHLVEVMNPKEFVKINRQTVIVEAGIPRGSVGAAIAKLLETGHLIANASGAYKLT	0.278
HMSLPTYVQISEAIARRITAGQWLDGERLPPERTMAAEFGVAVGTLRKALSRLQDQKLLRRLQGSGNYINI	-1.67
HMSSTPEPPQAVLDLVNLREQARAGKDWTQSDAFRQQIAALGWTVKDTKDGPVVSLSPTTTE	0.392
